# Source: US20250304711A1, “Methods and Compositions for Treating Obesity, Obesity-Related Diseases, Fatty Liver and Fatty Liver Associated Diseases with Anti-CD24 Agents” (The Board of Trustees of the Leland Stanford Junior …, priority 2022, published 2025)
# Columns and labels:
# [1] = test system: Huh7D cells; assay: Steatosis in Huh7D cells cultured in fatty medium, Nile Red stain; type: cell-based; details: Huh7D cells 4 days in fatty medium, then treated 3 days in fatty medium; Nile Red fluorescence; agents at 1 μg/mL unless otherwise specified
# Experimental: FIG. 1A-1D: Relative lipid accumulation of Huh 7D cells when cultured on fatty medium and treated with various anti-CD24 agents. Agents were added at 1 μg/mL unless otherwise specified as in the Fab. MOSW1, SWA11, ML5, SN3: mouse anti human CD24 antibodies; MOSW2: SWA11 antibody with point mutations to silent complement activity; MOSW3: SWA11 antibody with point mutations to silent complement activity, antibody-dependent cytotoxicity (ADCC) and antibody-dependent cellular phagocytosis (ADCP); Fab: Fab of SWA11 antibody, G7s: scFv against human and mouse CD24; TW2, TW6, V2, V3, V4, V6, V7, V8, V9, V10, V14, V15, V16: different humanized anti-CD24 antibodies; hIgG: human IgG isotype control. FIG. 1A: anti-steatosis activity of SWA-11, Fab, TW2, TW6 and G7S; FIG. 1B: anti-steatosis activity of V2, V3, V4, V6, V7, V8, V9, V10, V14, V15, V16; FIG. 1C: anti-steatosis of SWA11, Fab, ML5, SN3, MOSW1, MOSW2, MOSW3; FIG. 1D: anti-steatosis of 3 small molecules that bind CD24.
# Specifically, Huh7 cells, which are liver hepatoma cells, were cultured in 1% DMSO (Huh7D cells) and then supplemented with fatty medium to induce steatosis. […] To determine the degree of steatosis, cells were stained with 1 mg/ml Nile Red solution (Sigma Aldrich) in cell culture medium for 15 mins at 37° C. and florescence signal was measured.
# [2] = test system: NSG mice with humanized livers; assay: NSG mice with humanized livers on HFD: graft survival, human albumin, CT; type: in vivo, mouse
# Experimental: In order to determine the effect of anti-CD24 agent in a more physiologic model of human fatty liver disease, we used a mouse model in which human liver can be engrafted. Briefly, NSG mice with humanized livers were prepared using the RAAPID-TKG method. These mice contain chimeric livers that harbor both murine and human hepatocytes and the degree of human liver engraftment can be ascertained by measuring serum human albumin. 2 mice with similar degrees of human liver engraftment, as measured by baseline serum human albumin, were placed on HFD for 6 weeks and then treated with either IgG control or an anti-CD24 antibody—which we term MOSW3—whose Fc has been engineered to contain point mutations that abrogate ADCC, ADCP, as well as compliment binding activity, i.e., Fc-silent antibody. Antibodies were dosed at 25 μg twice a week.
Molecule,anti-steatosis efficacy (relative lipid accumulation) [1],"steatosis on liver CT scan ([2]; 3 weeks post treatment, IgG treated mouse vs MOSW3 treated mouse)","human liver graft survival ([2]; HFD 6 weeks, then 25 μg twice a week, vs IgG control)","serum human albumin ([2]; humanized-liver NSG mice, HFD 6 weeks, then 25 μg twice a week, weekly serum for 3 weeks, vs IgG control)"
O=C(O)c1ccccc1C(=O)c1cn(-c2ccc(F)cc2)[n+]([O-])n1 [A],anti-steatosis efficacy,,,
Cc1cccc(-n2nc([N+](=O)[O-])c(NCc3ccc(F)cc3)[n+]2[O-])c1 [B],anti-steatosis efficacy,,,
"MOSW3: SWA11 mouse IgG2a, C1q and Fc silenced (L234A, L235A, K320A, K322A, P329G); SEQ ID NO: 17 and 34 (antibody) heavy: DVQLQESGPDLVKPSQSLSLTCTVTGYSITSGYTWHWIRQFPGNTVEWMGYIQYTGSTRYNPALRGRLSISRDTSKNQFFLQLISVTTADTGTYFCARGTTASFDYWGQGTTLTVASAKTTAPSVYPLAPVCGDTTGSSVTLGCLVKGYFPEPVTLTWNSGSLSSGVHTFPAVLQSDLYTLSSSVTVTSSTWPSQSITCNVAHPASSTKVDKKIEPRGPTIKPCPPCKCPAPNAAGGPSVFIFPPKIKDVLMISLSPIVTCVVVDVSEDDPDVQISWFVNNVEVHTAQTQTHREDYNSTLRVVSALPIQHQDWMSGKEFACAVNNKDLGAPIERTISKPKGSVRAPQVYVLPPPEEEMTKKQVTLTCMVTDFMPEDIYVEWTNNGKTELNYKNTEPVLDSDGSYFMYSKLRVEKKNWVERNSYSCSVVHEGLHNHHTTKSFSRTPGK light: DIVMSQSPSSLNVSVGEKVTMRCRSSQSLLYSSDQKNYLTWYQQKPGQSPKLLISWASTRASGVPDRFTGSGSGTDFTLTISSVKAEDLGVYYCQQYFIYPLTFGVGTKLGLKRADAAPTVSIFPPSSEQLTSGGASVVCFLNNFYPKDINVKWKIDGSERQNGVLNSWTDQDSKDSTYSMSSTLTLTKDEYERHNSYTCEATHKTSTSPIVKSFNRNEC",,The IgG treated mouse showed higher level of steatosis (FIG. 9B) compared to the MOSW3 treated mouse,longer graft survival,maintenance of serum human albumin
